Test results taken from patent US5254534A, “Adjuvant for cancer immunotherapy” (Green Cross Corporation, priority 1988, dated 1993).
Like-named read-outs stand apart in the source and are kept apart here.

Key:
mouse marrow cells [1] = experiment: Colony stimulating activity: colony formation of mouse marrow cells on soft agar; assay type: cell-based; conditions: for specific activity: purified glycoprotein/CSF of the examples
Procedure: In biological activity measurement, the colony formation of mouse marrow cells in vitro was used as an activity measurement parameter. […] Thereafter, cell aggregates consisting of 50 or more cells were counted as colonies under an invert microscope.
One colony formed is taken as one unit.
Thus, the CSF sample was admixed with 1 ml of McCoy's 5A medium containing 0.3% agar, 20% fetal calf serum (FCS) and 1×10^5 mouse marrow cells. […] Thereafter, cell aggregates consisting of 50 or more cells were judged as colonies and counted. The colony stimulating activity was expressed in units. One unit was defined as the quantity of CSF required for the formation of one colony. The specific activity was expressed in terms of the number of colonies (units) formed per milligram of the CSF protein. […] The colonies formed were stained with hematoxylin-eosin for morphological classification.

TNF activity = experiment: Induction of TNF activity by mixed culture of monocytes and PICIBANIL (OK-432) plus CSF; cytocidal activity against L929 cells (crystal violet); assay type: cell-based; conditions: conclusions from Table 2
Procedure: (3) Incubation was performed at 37° C. for 72 hours in a 5% CO2 atmosphere.
(4) The supernatant was assayed for TNF activity at timed intervals. The TNF activity was determined by measuring the cytocidal activity against L929 cells in terms of the absorbance of crystal violet.

[2] = 60±0.5° C., 60 minutes; CSF (iv); cited from earlier work
[3] = polyacrylamide gel isoelectric focusing and sucrose density gradient isoelectric focusing; CSF (iv); cited from earlier work
[4] = system: mammalian monocyte-macrophage series cells; conditions: cited from earlier work
mouse marrow cells [5] = conditions: CSF (iv), typical production method; cited from earlier work
[6] = 1% (by weight) aqueous solution, 60° C. ±0.5° C., 30 minutes; cited from earlier work
[7] = 1% (by weight) aqueous solution; cited from earlier work
human marrow cells = conditions: cited from earlier work
[8] = cited from earlier work
marrow cells = conditions: cited from earlier work
Isoelectric point = assay type: physicochemical; conditions: polyacrylamide gel isoelectric focusing and sucrose density gradient isoelectric focusing
From the text: The isoelectric point (pI) as determined by the polyacrylamide gel isoelectric focusing and sucrose density gradient isoelectric focusing techniques is 3.1-3.7.

[9] = Thermal stability of the CSF (60°C, then colony stimulating activity); assay type: physicochemical; conditions: 1 μg/ml, dilute buffer pH 7.0, 60°±0.5° C., 60 minutes
Procedure: The CSF was dissolved in a dilute buffer (pH 7.0) to a concentration of 1 μg/ml, and the solution was heated at 60°±0.5° C. for 60 minutes and then assayed for colony stimulating activity (to be mentioned later herein).

B1: Example 4: human urine-derived CSF isolated and purified in the same manner as in Example 3 with TSKG-3,000SW and phenyl-5pw (protein, UniProt P09603 33-554, looked up)
Macrophage colony-stimulating …: EEVSEYCSHMIGSGHLQSLQRLIDSQMETSCQITFEFVDQEQLKDPVCYLKKAFLLVQDIMEDTMRFRDNTPNAIAIVQLQELSLRLKSCFTKDYEEHDKACVRTFYETPLQLLEKVKNVFNETKNLLDKDWNIFSKNCNNSFAECSSQDVVTKPDCNCLYPKAIPSSDPASVSPHQPLAPSMAPVAGLTWEDSEGTEGSSLLPGEQPLHTVDPGSAKQRPPRSTCQSFEPPETPVVKDSTIGGSPQPRPSVGAFNPGMEDILDSAMGTNWVPEEASGEASEIPVPQGTELSPSRPGGGSMQTEPARPSNFLSASSPLPASAKGQQPADVTGTALPRVGPVRPTGQDWNHTPQKTDHPSALLRDPPEPGSPRISSLRPQGLSNPSTLSAQPQLSRSHSSGSVLPLGELEGRRSTRDRRSPAEPEGGPASEGAARPLPRFNSVPLTDTGHERQSEGSFSPQLQESVFHLLVPSVILVLLAVGGLLFYRWRRRSHQEPQRADSPLEQPEGSPLTQDDRQVELPV
Which specific activity (mouse marrow cells [1]) does the source give for B1 here?
Its specific activity is 1.5×10^8 units/mg protein.

What about the “TNF activity (in words)” value (TNF activity) of the same molecule?
The value was “does not cause TNF activity expression”.

B2: CSF (iv): CSF disclosed in JP-A-63-250400; glycoprotein, homodimer composed of two identical subunits (protein, UniProt P09603 33-554, looked up)
Macrophage colony-stimulating …: B1 Macrophage colony-stimulating …
Which “Thermal stability (biological activity)” value [2] does the source give for B2 here?
Its value is “biological activity is not lost”.

And the “isoelectric point (pI)” value [3]?
Its value is 3.1-3.7.

What about the colony stimulating activity [4] of the same molecule?
Its colony stimulating activity is “has colony stimulating activity”.

What about the specific activity (mouse marrow cells [5]) of the same molecule?
The specific activity was 100,000-20,000,000 units/mg protein.

B3: CSF (i): CSF disclosed in U.S. Pat. No. 4,275,056; glycoprotein, molecular weight 75,000-90,000 by gel filtration (protein, UniProt P09603 33-554, looked up)
Macrophage colony-stimulating …: B1 Macrophage colony-stimulating …
For B3, which Temperature stability [6] is on record?
The Temperature stability was “loses its ability to promote the differentiation and proliferation of human granulocytes”.

And the pH [7]?
Its pH is 5.0-6.0.

And the “differentiation and proliferation of granulocytes” value (human marrow cells)?
Its value is “promotes the differentiation and proliferation of granulocytes”.

What about the Solubility in chloroform ([8]; chloroform) of the same molecule?
The Solubility in chloroform was “slightly soluble”.

What about the “Solubility in ethyl alcohol and acetone” value ([8]; ethyl alcohol and acetone) of the same molecule?
The value was “insoluble”.

And the Solubility in water ([8]; water)?
Its Solubility in water is “soluble”.

B4: CSF (ii): CSF disclosed in JP-A-63-54398; glycoprotein, molecular weight about 70,000 by gel filtration (protein, UniProt P09603 33-554, looked up)
Macrophage colony-stimulating …: B1 Macrophage colony-stimulating …
Which “differentiation and proliferation of granulocytic series stem cells” value (marrow cells) does the source give for B4 here?
The value was “promotes the differentiation and proliferation of granulocytic series stem cells”.

B5: Example 3: purified CSF from human urine, homodimer of 70,000-90,000 daltons (protein, UniProt P09603 33-554, looked up)
Macrophage colony-stimulating …: B1 Macrophage colony-stimulating …
What does the source list for B5?
proportion of colonies that were monocyte-macrophage colonies (mouse marrow cells [1]; hematoxylin-eosin staining, 7 days at 37° C.): at least 95%; specific activity (mouse marrow cells [1]): 1.4×10^8 units/mg protein; isoelectric point (pI) (Isoelectric point): 3.1-3.7; Thermal stability (colony stimulating activity decrease) [9]: Almost no activity decrease was observed

B6: 2: heat-treated glycoprotein (CSF) from fresh urine collected from healthy humans (protein, UniProt P09603 33-554, looked up)
Macrophage colony-stimulating …: B1 Macrophage colony-stimulating …
modifications: heat-treated
notes: heat-treated glycoprotein (CSF) from fresh urine collected from healthy humans
With B6 as the molecule, how does the specific activity (mouse marrow cells [1]) read?
Its specific activity is 1×10^7 units/mg protein.
